Assay in all cases: native MS
The target of data set [1] is T1, recombinant form of human platelet factor 4 (PF4), tetramer (human, UniProt P02776).
Data set [2] deals with T1, recombinant form of human platelet …. The source holds these as a separate data set.
Data set [3] deals with the molecule itself.

“And” between values parts separate entries of the source, which are not always exact repeats. Equal values may be shown once. Read-outs that look alike come from different tables or passages of the source.

B1: KKO monoclonal anti-PF4/heparin antibody (antibody, V domains shown)
VH: VQLQQSGAELVKPGASVKLSCKASGYTFTNYFIYWVKQRPGQGLEWIGEINPRNGDTDFNEKFESRATLTVDKSSSTAYMQLSSLTSEDSAIYYCTRSPYGNNYGFTYWGQGTLVTVSA
VL: DIQMIQSQKFMSTSVGDRVTVTCKASQNVGTNVAWYQQKPGQSPNALIYSASYRYSGVPDRFTGSGSGTDFTLTITNVQSEDLADYFCQQYNSYPLTFGTGTKLDLK
On to B1, for which the “stoichiometry N” value in data set [1] is 1 KKO per complex of two PF4 tetramers on one heparin chain and 2 KKO per complex of three PF4 tetramers on one heparin chain; in data set [2], 1 PF4 tetramer (with dp20) per KKO and 2 PF4 tetramers (with dp20) per KKO.

B2: recombinant form of human platelet factor 4 (PF4), tetramer (natural protein)
chain: EAEEDGDLQCLCVKTTSQVRPRHITSLEVIKAGPHCPTAQLIATLKNGRKICLDLQAPLYKKIIKKLLES
On to B2, for which, in data set [3], the “stoichiometry N” value amounted to 4 chains per oligomer.
